In patent publication US20190153078A1 (Sanofi, published 2019):
Read-outs that look alike come from different tables or passages of the source.

What was measured:
[1] = target: T1, C. difficile toxin A from strain VPI10463 (ATCC 43255), toxinotype 0 (Clostridium difficile, UniProt P16154 1-2710); assay: cell-based or functional assay
[2] = target: T1, C. difficile toxin A from strain …; assay: cell-based or functional assay; remark: listed apart in the source
[3] = target: T1, C. difficile toxin A from strain …; assay: BLI (Octet Red96), antibody on Protein A sensor, toxin in solution
[4] = target: T1, C. difficile toxin A from strain …
[5] = target: T2, WT Toxin B MLD (1-91) + LPETGG + 6X HIS (Clostridium difficile); assay: Western, dot blot, Octet (summary)
[6] = target: T3, C. difficile toxin B from strain VPI10463 (ATCC 43255), toxinotype 0 (Clostridium difficile, UniProt P18177 2-2366); assay: cell-based or functional assay
[7] = target: T3, C. difficile toxin B from strain …; assay: cell-based or functional assay; remark: listed apart in the source
[8] = target: Mutant Toxin B MLD (1-91) + LPETGG + 6X HIS (Clostridium difficile); assay: BLI (Octet RED96)
[9] = target: T3, C. difficile toxin B from strain …; assay: BLI (Octet Red96), antibody on Protein A sensor, toxin in solution
[10] = target: T2, WT Toxin B MLD (1-91) + LPETGG + 6X HIS; assay: BLI (Octet RED96)
[11] = target: T3, C. difficile toxin B from strain …

Binder | % completion TEER (T-84 cells) [1] | TEER NT50, nM (T-84 cells) [1] | % completion cytotox (Vero cells) [2] | Cytotox NT50, pM (Vero cells) [2] | Kd [3] | koff [3] | kon [3] | Kd [4] | binding result [5] | % completion TEER (T-84 cells) [6] | TEER NT50 (T-84 cells) [6] | % completion cytotox (Vero cells) [7] | Cytotox NT50, pM (Vero cells) [7] | binding result [8] | Kd [9] | koff [9] | kon [9] | binding result [10] | Kd [11]
A1 antibody (antibody, V domains shown) VH: QVHLQESGPGLVKPSETLSLTCTVSGDSISTYYWSWIRQPPGKGLEWIGYVYYTGSTNYSPSLEGRVTLSVDTSKNQFSLKLNSVSAADTAVYYCARGAAEWLRFRGFFDYWGQGILVSVSS VL: EVVLTQSPGTLSLSPGERATLSCRASQSVTNGFLAWYQQKPGQAPRVLIYGASSRATGIPDRFSGSGSGTDFTLTISRLEPEDFAMYYCQQYGLSGTFGQGTKLEIKR | 80% | < 1.3 nM | < 90% | 48 pM | < 0.01 nM | < 3.75e-06 s⁻¹ | 375000 M⁻¹ s⁻¹ |  |  |  |  |  |  |  |  |  |  |  | 
A2 antibody (antibody, V domains shown) VH: QVQLQESGPGLVKPSETLSLTCTVSGGSISTYYWSWIRQSPGKGLEWMGYIYYSGSTNYNPSLESRVTIAVDTSKNQFSLQLTSVTAADTAVYYCARGAAEWLRFRGFFDSWGQGTLVTVSS VL: ENVLTQSPGTLSLSPGERATLSCRASHSVTNNFLAWYQQKPGQAPRLLIYGVSSRATGIPDRFSGSGSGTDFTLTISRLEPEDFAVYYCQQYGVSGTFGQGTKLEIKR | 75% | 1.8 nM | 100% | 55 pM | 0.00443 nM | 1.58e-06 s⁻¹ | 356000 M⁻¹ s⁻¹ | < 0.01 nM |  |  |  |  |  |  |  |  |  |  | 
A3 antibody (antibody, V domains shown) VH: MQLLESGGGLVKPGGSLRLSCAASGFTFSNAWMSWVRQGPGKGLEWVGRIKSKTDGGTTDYAAPVKGRFSISRNDSNNTLFLQMNSLKTEDTAVYYCTTGPQIVVVAGATSRDQPNYYYYGLDVWGLGTTVTVSS VL: QSVLTQPPSASGTPGQRVTISCSGSSSNIGINTVNWYQQLPGTAPKLLIYKSNLRPSGVPDRFSGSKSGTSASLAISGLRSEDEADYYCAAWDDSLTGLYVFGTGTKVTVLG | 80% | 1.3 nM | 90% | 980 pM | 0.461 nM | 7.77e-05 s⁻¹ | 169000 M⁻¹ s⁻¹ |  |  |  |  |  |  |  |  |  |  |  | 
A4 antibody (antibody, V domains shown) VH: QVHLVESGGGVVQPGRSLRLSCATFGLNFSDYGFHWVRQAPGKGLEWVAVTSYDGSNKYYAEFVKGRFTISRDNYKNTVYLQMNSLRLEDTAVYYCARDLAPYNFWSGYGNNWFDPWGQGTLVTVSS VL: EIVLTQSPGTLSLSPGERATLSCRASQSVTGTSLAWFQQKPGQAPRLLIYGASSRATGIPDRFSGSGSGTDFTLTISRLEPEDFAVYYCQQYGSSPRLTFGGGTKVEIKR |  | 4.7 nM | < 90% | 3400 pM | 0.000557 nM | 3.09e-07 s⁻¹ | 555000 M⁻¹ s⁻¹ | < 0.01 nM |  |  |  |  |  |  |  |  |  |  | 
A5 antibody (antibody, V domains shown) VH: QVHLVESGGGVVQPGRSLRLSCATFGLNFSDYGFHWVRQAPGKGLEWVAVTSYDGSNKYYAEFVKGRFTISRDNYKNTVYLQMNSLRLEDTAVYYCARDLAPYNFWSGYGNNWFDPWGQGTLVTVSS VL: EIVMTQSPATLSVSPGERATLSCRASQSISSNLAWYQQKPGQAPRLLIYDASTRATGIPARFSGSGSGTEFTLTISSLQSEDFAVYYCQQYNDWLVTFGQGTKVEIKR |  | 7.3 nM | 75% | 2700 pM | 0.144 nM | 4.49e-05 s⁻¹ | 312000 M⁻¹ s⁻¹ |  |  |  |  |  |  |  |  |  |  |  | 
B1 antibody (antibody, V domains shown) VH: EVQLVESGGGLVQPGGSLRLSCAASGFTFRSYWMHWVRQVPGKGLVWVSCINKEGSSTTYADSVKGRFTISRDNAKNTLYLEMNSLRADDTAVYYCLRGYDVDYWGQGTLVTVSS VL: QAVLTQPSSLSASPGASVSLTCTLRSGINVGTYRIYWYQQKPGSPPRYLLRYKSGLDKHQGSGVPSRFSGSKDDSANAGILFISGLQSEDEADYYCLIWHSSAVVFGGGTKLTVLG |  |  |  |  |  |  |  |  | no binding | 91% | 270 | 95% | 49 pM | no binding | 0.0477 nM | 2.79e-05 s⁻¹ | 585000 M⁻¹ s⁻¹ |  | 
B3 antibody (antibody, V domains shown) VH: EVQLVESGGGLVQPGGSLRLSCSASGFTFRSYWMHWVRQVPGKGLVWVSCINKEGSSTTYADSVKGRFTISRDNAKNTLYLQMNSLRADDTAVYYCLRGYDVDYWGQGTLVTVSS VL: QAVLTQPSSLSASPGASVSLTCTLRSGVNVGSYRIYWYQQKPGSPPRYLLRYKSGLDKHQGSGVPSRFSGSKDDSANAGILFISGLQSENDADYYCLIWHNSAVVFGGGTKLTVLG |  |  |  |  |  |  |  |  |  | 95% | 600 | 100% | 100 pM | no binding | 0.487 nM | 9.4e-05 s⁻¹ | 193000 M⁻¹ s⁻¹ | no binding | 
B5 antibody (antibody, V domains shown) VH: QVHLQESGPGLVKPSGTLSLTCAVSGGSISYTNWWSWVRLPPGKGLEWIGEIYHSRSTNYNPSLKSRVTMSIDKSKNLFSLKLNSVTAADTAIYYCAKAAYTRDGIQPFDNWGQGTLVTVSS VL: not shown |  |  |  |  |  |  |  |  |  | 70% | 200 | 95% | 2900 pM |  | 0.202 nM | 9.62e-05 s⁻¹ | 477000 M⁻¹ s⁻¹ |  | 
B4 antibody (antibody, V domains shown) VH: EVQLVESGGGLVKPGGSLRVSCAASGFTFSSYSMNWIRQAPGKGLEWVSSISSNSSYIYYADSVKGRFTISRDNAKNSLYLQMNSLRAEDTAVYYCARDRDYSNYLTAWGQGTLVTVSS VL: QSVLTQPPSVSGAPGQRVTISCTGSSSNIGAGYDVHWYRQLPGTAPKLLIYGKNNRPSGVPNRFSGSKSGTSASLAITGLQAEDEADYYCQSYDSSLSGSVFGGGTKLTVLG |  |  |  |  |  |  |  |  |  | 93% | 130 |  |  |  | 0.121 nM | 6.44e-05 s⁻¹ | 531000 M⁻¹ s⁻¹ |  | 
B6 antibody (antibody, V domains shown) VH: EVQLVESGGGLVQPGGSLRLSCAASGFTFTTSTMNWVRQAPGKGLEWVSYITRTSTVIYYADSVKGRFTISRDNAKNSLYLQMSSLRAEDTAVYYCARGVRDIGGNGFDYWGQGTLVTVSS VL: EIVLTQSPGTLSLSPGERATLSCRASQSVTSSYLAWYQQKTGQAPRLLIYGASSRATGIPDRFSGSGSGTDFTLTIARLEPEDFAVYYCQQYGSSPPYTFGQGTKLEIKR |  |  |  |  |  |  |  |  |  | 92% | 100 |  |  |  | 0.000726 nM | 5.3e-07 s⁻¹ | 730000 M⁻¹ s⁻¹ |  | < 0.01 nM
